# Source: patent publication US20160145343A1
# B1: M20 (antibody, human IgG1, kappa, V domains shown)
# VH: EVQLVESGGGLVQPGGSLRLSCAASGFTFSSYWMHWVRQAPGKGLVWVSHINSDGSSTSYADSVKGRFTISRDNAKNTLYLQMNSLRAEDTAVYYCARELADWGQGTLVTVSS
# VL: DVVMTQSPLSLPVTLGQPASISCRSSQSLVYSDGNTYLNWFQQRPGQSPRRLIYQVSNRDSGVPDRFSGSGSGTDFTLKIGRVEAEDVGVYFCMQGTHWPWTFGQGTKVEIKR
# B2: M22 (antibody, human IgG1, kappa, V domains shown)
# VH: EVQLVESGGGLVQPGGSLRLSCAASGFTVSSNYMSWVRQAPGKGLEWVSVIYSGGTTYYADSVKGRFTISRHNSKNTLYLQMNSLRAEDTAVYYCARDHDPDYGGYYMDVWGKGTTVTVSS
# VL: B1 VL
# B3: M21 (antibody, human IgG1, kappa, V domains shown)
# VH: EVQLVESGGGLVQPGGSLRLSCAASGFTVSSNYMSWVRQAPGKGLEWVSVIYSGGSTYYADSVKGRFTISRDNSKNTLYLQMNSLRAEDTAVYYCARDQEHYFDGSGYYVDYWGQGTLVTVSS
# VL: B1 VL
# B4: M7 (antibody, human IgG1, kappa, V domains shown)
# VH: EVQLVESGGGLVQPGGSLRLSCAASGFTVSSNYMSWVRQAPGKGLEWVSVIYSGGSTYYADSVKGRFTISRDNSKNTLYLQMNSLRAEDTAVYYCARGSTNTYYYDSSGHPWGQGTMVTVSS
# VL: DIVMTQSPLSLPATPGEPASISCRSSQSLLHSNGYTYLDWYLQKPGQSPQVLIYLASNRASGVPDRFSGSGSGTNFTLKISRVEAEDVGLFYCMQALQTPQTFGQGTKLEIKR
# B5: M3 (antibody, human IgG1, lambda, V domains shown)
# VH: QLQLQESGPGLVKPSETLSLTCTVSGGSISSSSYYWGWIRQPPGKGLEWIGSIYYSGSTHYNPSLKSRVTISVDTSKNQFSLKLRSVTAADTAVYYCARGVVEVRGNHYYYYYMDVWGKGTTVTVSS
# VL: QSVLTQPPSVSGAPGQRVTISCTGSSSNIGAGYDVHWYQQLPGTAPKLLIYGNSYRPSGVPDRFSGSKSGTSASLAITGLQAEDEADYYCQSYDSSLSGSGVFGGGTKLTVLG
# Tests used:
# [1] = molecular target: Normal MUC1 on non-transformed MCF-10A cells and on normal tissue (human) (UniProt P15941); assay: flow cytometry, MCF10a cells
# [2] = molecular target: SEQ ID NO: 346 glycopeptide with TF-antigen at Thr16; assay: ELISA on coated glycopeptide, antibody 0.01 mg/ml, mean of 3
# [3] = molecular target: SEQ ID NO: 346 glycopeptide with Tn-antigen at Thr4, Thr9 and Thr16; assay: as above
# BSA = BSA (UniProt P02769); assay: ELISA on coated BSA, antibody 0.01 mg/ml, mean of 3
# BSA, sequence (P02769 25-607 limits assumed): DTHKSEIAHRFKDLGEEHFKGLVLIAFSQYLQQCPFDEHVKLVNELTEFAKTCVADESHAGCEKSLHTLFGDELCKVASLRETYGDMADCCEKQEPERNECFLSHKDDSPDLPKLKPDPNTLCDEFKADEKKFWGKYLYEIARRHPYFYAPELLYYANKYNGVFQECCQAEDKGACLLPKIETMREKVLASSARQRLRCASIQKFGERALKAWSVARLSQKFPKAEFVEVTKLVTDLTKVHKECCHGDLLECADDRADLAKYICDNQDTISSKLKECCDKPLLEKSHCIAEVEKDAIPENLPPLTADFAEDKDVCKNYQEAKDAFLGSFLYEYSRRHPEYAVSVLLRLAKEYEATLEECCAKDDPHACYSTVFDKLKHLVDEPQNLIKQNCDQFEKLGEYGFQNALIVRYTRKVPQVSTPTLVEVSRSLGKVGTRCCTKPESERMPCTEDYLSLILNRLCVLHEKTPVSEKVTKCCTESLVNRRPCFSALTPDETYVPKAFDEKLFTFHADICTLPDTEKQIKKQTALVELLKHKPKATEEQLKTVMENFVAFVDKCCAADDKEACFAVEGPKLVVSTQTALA
Binder,percentage of APC+ stained cells [1],ELISA absorbance at 450 nm [2],ELISA absorbance at 450 nm [3],ELISA absorbance at 450 nm (BSA)
B1,4.45%,0.1 absorbance,0.1 absorbance,0.1 absorbance
B2,2.17%,0.1 absorbance,0.1 absorbance,0.1 absorbance
B3,2.67%,0.1 absorbance,0.1 absorbance,0.1 absorbance
B4,0.95%,–,–,0.1 absorbance
B5,3.14%,–,–,0.1 absorbance
